Columns and labels:
[1] = molecular target: T1, hTfR (human transferrin receptor, source and construct not stated) (human, UniProt P02786 89-760, limits assumed); assay: ELISA; ratio of the Kd on HFE-captured hTfR to the Kd on directly coated hTfR
[2] = molecular target: T1, hTfR (human transferrin receptor, …); assay: ELISA; ratio of the Kd on transferrin-captured hTfR to the Kd on directly coated hTfR
How it was run: (§1)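 Human holo-transferrin coated at 500 ng/mL (4 °C overnight) captured hTfR (200 ng/mL, 30 min); comparison plates carried directly coated hTfR. Biotinylated antibodies, 3-fold series from 20 nM (pre-addition), bound 1 h; streptavidin-HRP/TMB, A450 minus A570. Kd from specific binding with Hill slope; shift judged against reference antibody AF2474 with transferrin-overlapping epitope.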

[3] = molecular target: T2, recombinant cyno transferrin receptor protein (Sino Biological 90253-C07H) (cyno, UniProt H9EXL1 89-760 (rhesus entry)); assay: ELISA on plate-coated recombinant cyno TfR1 (CD71); fit: specific binding with Hill slope
T2 construct: Bought protein coated on ELISA plates; also called recombinant cyno TfR1; cynoTfR1
T2 sequence (chain, as listed by the source C07H C07H): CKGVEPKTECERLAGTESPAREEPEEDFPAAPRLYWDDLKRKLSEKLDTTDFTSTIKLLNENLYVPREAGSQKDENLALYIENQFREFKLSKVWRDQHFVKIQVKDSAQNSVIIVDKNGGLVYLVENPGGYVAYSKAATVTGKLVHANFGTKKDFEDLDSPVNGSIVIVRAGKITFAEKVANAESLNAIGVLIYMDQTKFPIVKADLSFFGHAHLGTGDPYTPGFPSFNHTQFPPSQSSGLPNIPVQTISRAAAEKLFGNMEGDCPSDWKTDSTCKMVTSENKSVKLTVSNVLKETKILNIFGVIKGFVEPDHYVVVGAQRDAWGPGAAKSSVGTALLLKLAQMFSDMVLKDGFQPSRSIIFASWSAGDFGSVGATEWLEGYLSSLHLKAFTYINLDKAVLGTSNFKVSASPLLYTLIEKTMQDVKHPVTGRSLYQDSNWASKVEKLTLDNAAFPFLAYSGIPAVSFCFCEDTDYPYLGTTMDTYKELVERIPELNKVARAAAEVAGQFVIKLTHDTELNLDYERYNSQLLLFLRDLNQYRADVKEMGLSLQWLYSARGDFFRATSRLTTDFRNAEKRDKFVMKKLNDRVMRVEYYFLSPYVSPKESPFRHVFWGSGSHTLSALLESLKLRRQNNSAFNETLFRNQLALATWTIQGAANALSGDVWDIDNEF
How it was run: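 Plates coated overnight at 4° C with recombinant human or cyno TfR1 (1 ng/μL), blocked, then incubated with samples up to 10 nM for 1 h at room temperature. Bound IgG detected with HRP anti-human Fcγ and TMB (A450 minus A570); Bmax, h and Kd from specific-binding-with-Hill-slope fit.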

[4] = molecular target: T1, hTfR (human transferrin receptor, …); assay: ELISA, biotinylated antibody on hTfR captured by plate-coated HFE (HFE+TfR); fit: specific binding with Hill slope
[5] = molecular target: T1, hTfR (human transferrin receptor, …); assay: ELISA, biotinylated antibody on hTfR captured by plate-coated human holo-transferrin (Tf+TfR); fit: specific binding with Hill slope
How it was run: as §1

[6] = molecular target: T1, hTfR (human transferrin receptor, …); assay: SPR (BioRad ProteOn XPR36), average of the three 13E4_WT runs, mAb captured on Protein A, hTfR as analyte, 25 C; Average (n = 3) of the three 13E4_WT runs
Protocol: The binding kinetics of nine exemplary humanized anti-TfR antibodies and the parent chimeric antibody were characterized. Studies were run on a BioRad ProteOn XPR36 optical biosensor using a GLM sensor chip coated with Protein A for mAb capture. Running buffer included 10 mM EPES, 150 mM NaCl, pH 7.4 with 0.05 tween-20 with 0.2 mg/ml BSA. Data were collected at 25 degrees C. All mAbs were diluted into running buffer to 2 ug/ml based on the stock concentration provided. Each was then captured for 40 seconds over a Protein A surface.
hTfR (100 ug) was dissolved into […] of water to yield a 4.3 uM stock concentration. hTfR was dilted to 43 nM as the highest concentration and tested in a 3 fold dilution series. hTfR was injected at 200 ul/min for 2 minutes followed by a one-hour dissociation phase.

T1 sequence (P02786 89-760 limits assumed): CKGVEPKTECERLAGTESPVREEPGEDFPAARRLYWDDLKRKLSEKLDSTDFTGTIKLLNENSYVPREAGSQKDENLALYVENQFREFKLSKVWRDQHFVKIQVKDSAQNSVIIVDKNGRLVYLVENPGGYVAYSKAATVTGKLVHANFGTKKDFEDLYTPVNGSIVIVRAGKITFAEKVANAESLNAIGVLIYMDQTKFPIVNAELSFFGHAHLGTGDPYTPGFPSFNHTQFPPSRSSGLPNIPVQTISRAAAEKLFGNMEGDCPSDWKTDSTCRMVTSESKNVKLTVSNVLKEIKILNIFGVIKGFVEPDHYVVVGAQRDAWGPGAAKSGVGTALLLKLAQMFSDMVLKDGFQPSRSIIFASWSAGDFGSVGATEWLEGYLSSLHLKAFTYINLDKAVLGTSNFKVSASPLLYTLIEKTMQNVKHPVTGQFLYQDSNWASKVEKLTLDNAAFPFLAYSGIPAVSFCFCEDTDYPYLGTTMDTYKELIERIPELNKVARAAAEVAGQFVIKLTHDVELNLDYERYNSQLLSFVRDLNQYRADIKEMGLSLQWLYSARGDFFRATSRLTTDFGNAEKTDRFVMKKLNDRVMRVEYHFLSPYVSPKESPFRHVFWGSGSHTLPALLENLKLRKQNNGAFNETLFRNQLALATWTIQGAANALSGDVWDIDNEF

- Kd(HFE+TfR)/Kd(TfR) [1]: 16.9
- Kd(Tf+TfR)/Kd(TfR) [2]: 3.1
- Bmax [3]: 99.1 % max binding
- Kd [3]: 0.00582 nM
- h [3]: 1.34
- Bmax [4]: 2.88 A450
- Kd [4]: 0.286 nM
- h [4]: 1.54
- Bmax [5]: 3.45 A450
- Kd [5]: 0.0518 nM
- h [5]: 1.57
- kon [6]: 900000 M⁻¹ s⁻¹
B1: 13E4_WT (parent chimeric anti-TfR antibody) (antibody, V domains shown)
VH: QVQLQQPGAELVKPGASVKLSCKASGYTFTNYWMHWVKQRPGQGLEWIGEINPINGRSNYGERFKTKATLTVDKSSSTAYMQLSSLTSEDSAVYYCARGTRAMHYWGQGTSVTVSS
VL: DIQMTQSPASLSVSVGETVTITCRTSENIYNNLAWYQQKQGKSPQLLVYAATNLADGVPSRFSGSGSGTQYSLKINSLQSEDFGNYYCQHFWGTPLTFGAGTKLELK
notes: also called 13E4_WT 1st; 13E4_WT 2nd

— patent US20200325237A1 (AVIDITY BIOSCIENCES, published 2020)
